Reference: article PMC10192418 (2023)

B1: linear peptide 3 [modified: 5(6)-carboxyfluorescein on the N-terminus; 5(6)-carboxyfluorescein on the N-terminus] / B-RCAL (BÜHLMANN recombinant calprotectin; His6-linker-S100A9-linker-S100A8) [human] (parent complex)
chain 1: RSPESVAFPMFQSHWYSG
chain 2: MTCKMSQLERNIETIINTFHQYSVKLGHPDTLNQGEFKELVRKDLQNFLKKENKNEKVIEHIMEDLDTNADKQLSFEEFIMLMARLTWASHEKMHEGDEGPGHHHKPGLGEGTPLEVLFQGPMLTELEKALNSIIDVYHKYSLIKGNFHAVYRDDLKKLLETECPQYIRKKGADVWFKELDINTDGAVNFQEFLILVIKMGVAAHKKSHEESHKE

Variants of: B1
Experiment: SPR; peptide injected at 500 nM; single measurement; calprotectin immobilized; read off a plot

Row | response [RU] | Variant
1 | ~130 | chain 1 RSPASVAFPMFQSHWYSG
